This note sets out measurements from US5661126.

The assay addresses recombinant human Mullerian Inhibiting Substance (human) (UniProt P03971). As to the kind of experiment: absorption of DG-MIS with IgG (1:3) and Protein A Sepharose, MIS in supernatant by ELISA; MIS alone 9.0 nM.

Regarding “normal rabbit IgG (Dako Corporation, Denmark Lot 108) (polyclonal serum or antibody)”, the MIS level left after absorption amounted to 8.8 nM.
